IC50 data for 1 molecule are collected here from patent US20200101152A1 (INSERM INSTITUT NATIONAL DE LA SANTE ET DE LA RECHERCHE …, published 2020).

The target of test [1] is Rhesus macaque (NHP) CD40 ectodomain fused to cohesin (Rhesus macaque, UniProt F6SNI1 21-193). Put plainly: multiplexed bead-based equilibrium competition; NHP CD40 ectodomain beads; competitor mouse 12E12 mAb 10 ng/ml, PE anti-mouse IgG, Bio-Plex 200.
The target in test [2] is T1, human CD40 ectodomain fused to cohesin (human, UniProt P25942 22-193).
T1 construct: also called human CD40 coated beads; not shown: cohesin carrier (GenBank CP000568.1 nt 3622666-3623172) and the Nhe I site linker
Put plainly: multiplexed bead-based equilibrium competition; human CD40 ectodomain beads; competitor mouse 12E12 mAb 10 ng/ml, PE anti-mouse IgG, Bio-Plex 200.

T1 sequence (P25942 22-193 limits assumed, form in doubt): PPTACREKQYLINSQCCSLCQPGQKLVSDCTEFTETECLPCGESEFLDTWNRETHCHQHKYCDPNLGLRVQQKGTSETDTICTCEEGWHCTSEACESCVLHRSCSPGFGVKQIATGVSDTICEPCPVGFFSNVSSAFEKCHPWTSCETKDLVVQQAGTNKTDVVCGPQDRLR
Rhesus macaque (NHP) CD40 ectodomain fused to cohesin, sequence (F6SNI1 entry or part of it): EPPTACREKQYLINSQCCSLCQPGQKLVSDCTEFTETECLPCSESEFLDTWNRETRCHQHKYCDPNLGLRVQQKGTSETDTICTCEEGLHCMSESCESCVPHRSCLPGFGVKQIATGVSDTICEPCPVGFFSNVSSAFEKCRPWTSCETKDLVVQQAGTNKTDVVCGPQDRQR

B1: humanized αCD40 (humanized anti-human CD40 12E12 recombinant human IgG4 mAb) (antibody, V domains shown)
VH: EVQLVESGGGLVQPGGSLKLSCATSGFTFSDYYMYWVRQAPGKGLEWVAYINSGGGSTYYPDTVKGRFTISRDNAKNTLYLQMNSLRAEDTAVYYCARRGLPFHAMDYWGQGTLVTVSS
VL: DIQMTQSPSSLSASVGDRVTITCSASQGISNYLNWYQQKPGKAVKLLIYYTSILHSGVPSRFSGSGSGTDYTLTISSLQPEDFATYYCQQFNKLPPTFGGGTKLEIKG
notes: also called hAnti-CD40VH3-LV-hIgG4HC
The IC50 is the midpoint of a concentration-inhibition curve. A high value points to a need for much substance. With B1, the IC50 worked out at 0.83 pM in test [1] and 1 pM in test [2].
